Assay: yeast display, Sf9 membrane polyspecificity reagent, FACS + sequencing; frameworks hold sequencing errors
How it was run: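 Using colony PCR, genes from sorted yeast display clones were amplified, then sequenced on MiSeq at 2 × 250 and filtered by CDR length. The clones had been stained with 10% biotinylated, detergent-solubilized Sf9 membrane reagent for 1 hour at 4 °C and sorted by FACS into low and high (top ~1%) gates on anti-HA and streptavidin fluorescence. Polyreactivity labels come from the gate of origin.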

| Sequence | polyreactivity (PSR sort gate) |
| --- | --- |
| QVQLEESGGGLVQAGGSLRLICAASGSIFYYKYAMGGYRQAPGKERELVAAITSTGGTTYYADSVKGRFTISRDNAKNTVYLQMNSLKPEDTAVYYCAALAPYIGGVDYDYWGQGTQVTVSS | low polyreactivity |
| QVQLEESGGGLVQAGGSLRLICAAYGIIFYIYTMGWYRQEPVKERELVAAINPGGSRYYADSVKGRFTISRDNAKNTVYLQMNSLKPEDTAVYYCNKLSYGRSGYWGQGTEVTVSS | high polyreactivity |
| QVQLEESGGGLVQAGGSLRLRCAASGRTFHAYVMGWYRQAPGKERELVADISSGGDTYADSVKGRFTISRDNAKNTVYLQMNSLKPEDSAVYYCAVDLIQDESGYWGQGTQVNVSS | low polyreactivity |
| QVQLEESGGGLVQAGGSLRLSCAASGFIFGYYAMGSYRQAPGKERELVAAISKSGGRTRYADSVKGRFTISRDNAKNTVYLQMNSLKPVDTAVYYCATYDPARSTQGYDYWGQGTQVTVSS | high polyreactivity |
| QVQLEESGGGLVQAGGSLRLSCAASGFIIHLYGMGWYRQAPGKERELVAAISSGGRTYYADSVKGRFTISRDNAKNTVDLQMNSMIPEVTAVSYSAVFVAYLYSYYYWGQGTQVTVSS | low polyreactivity |
| QVQLEESGGGLVQAGGSLRLSCAASGFIVYYYAMGWYRQAPGKERELVAAISSGDRTYYADSVKGRFTISRDNAKNTVYLQMNSLKREDTAVYYCNALSRNTQLYDYWGQGTQVTVSS | high polyreactivity |
| QVQLEESGGGLVQAGGSLRLSCAASGFTFDANAMGWYRQAPGKERELVAAISSGGGSTYYADSVKGRFTISRDNPKNTVYLQMNSLKPEDTAVYYCAKVYLVYKSYPYDYWGLGTQVTVSS | high polyreactivity |
| QVQLEESGGGLVQAGGSLRLSCAASGFTFDVYAMGWYRQAPGKERELVAAIDSGGSTNYADSVKGRFTISRDNAKNTVYLQMNSLKPEDTAVYYCAVRYWKTLSHFSYDYWGQGTQVTVSS | low polyreactivity |
| QVQLEESGGGLVQAGGSLRLSCAASGFTLPANGMGWYRQAPGKERELVAAISFIAGSTYYADSVKGRFTISRDNAKNTVYLQMNSLKPEDTAVYYCSTQFPPSTIYDYWGQGTQVTVSS | low polyreactivity |
| QVQLEESGGGLVQAGGSLRLSCAASGGILDTYAMGWYRPAPWKETELVAANTSGCNTNYADSVKGRFTISRDNAKNTVYLQMISLKQEDTEVYYCNLVTWYYVFRPWEYDYCGQGTQVTVSS | low polyreactivity |
| QVQLEESGGGLVQAGGSLRLSCAASGGNFPVNAIGWYRQAPGKERELVATITYDGGNTYYADSVKGRFTISRDNAKNTVYLQMNSLKPEDTAVYYCAARTPQRSEWTKYGYWGQGTLVTVSS | low polyreactivity |
| QVQLEESGGGLVQAGGSLRLSCAASGGTFDYYAMGWYRQAPRKERELVAVINWSGGRTYYADSVKGRFTISRDNAKNTVYLQMNSLKPEDTAVYYCAAQRPPGQTWNRDYWGQGTQVTVSS | high polyreactivity |
| QVQLEESGGGLVQAGGSLRLSCAASGIIFATYAMGWYRQAPGKDRELVAAISSGGRTYYADSVKGRFTISRDNAKNTVYLQMNSLKPEDTAVYYCAAKSGGRSSLYNYWGQGTQVNVSS | high polyreactivity |
| QVQLEESGGGLVQAGGSLRLSCAASGIIFITYAMGWYRQAPGKEREMVAAITNSGGGTYYADSVKGRFTISRDNAKNTVYLQLNSLKPEDTAVYYCAARKTAYGYRYDYWGQGTQVTVSS | high polyreactivity |
| QVQLEESGGGLVQAGGSLRLSCAASGIIFPRNAMGWYRQAPGKERELVAAITNTGSTKYADSVKGRFTISRDNAKNSVYLHMNSLKPEDTAVYYCAKELGSVPSPSLYDYWGQGTQVTVSS | low polyreactivity |
| QVQLEESGGGLVQAGGSLRLSCAASGIIFTVYAMGWYRQATGTERELVAAITSSGGRTYYADSVKGRFTISRDNAKNTVYLQMNSLKPEDTAVYYCAARLPGYVRKYDYWGQGTQVTVSS | high polyreactivity |
| QVQLEESGGGLVQAGGSLRLSCAASGIIFWYNAMGGSRQAPGKETELVAAISRGGGNTYADSVKGRFTISRDNAKNTVYLQMKSLKEVDTAVYYCAAKRSGYRFNTRWFRLPKYDYWGQGNQVTVSS | low polyreactivity |
| QVQLEESGGGLVQAGGSLRLSCAASGITLGYYAMGWYRPAPGKERELVAAITWSGTSTYYADSVKGRFTISRDNAKNTVYLQMNSLKPEDTADYYCAAGFISQYQERGYWGQGTQVTVSS | low polyreactivity |
| QVQLEESGGGLVQAGGSLRLSCAASGLIFGHNAMGWYRQAPGKERELVAAISRSGTSTYYADSVKGRFTISRDNAKNTVYLQMNSLKPEDNAVYYCAAENYYTAGGSGPIYRRVYWGQGTQVTVSS | low polyreactivity |
| QVQLEESGGGLVQAGGSLRLSCAASGLIFIVYAMGWYRQAPGKERELVAAISFSGGSTYYADSVKGRFTISRDNAKNTVYLQMNSLKPEDTAVYYCAARARYTRRGRNYDYWGQGTQVTVSS | high polyreactivity |
| QVQLEESGGGLVQAGGSLRLSCAASGLIFRYYVMGWYRQAPGKERELVAGITSSGGSTYYADSVKGRFTISRDNAKNTVYLQMNSLKPEDTAVYYCNKGGISGRDYWGQGTQVTVSS | high polyreactivity |
| QVQLEESGGGLVQAGGSLRLSCAASGLIFSAYAMGWYRQAPGKERELVAAIRTGGSTYYADSVKGRFTFSRDNAKNTVYLQMNSLKPVDTAVYYCAASQKGYFYYNVYYWGQGTQVTVSS | high polyreactivity |
| QVQLEESGGGLVQAGGSLRLSCAASGLIIRAYAMGWSRQAPGKERELVAAITSSSGSTYYADSVKGRFTISRDNGKNSVYLQMNSLNPEDTAVYYCNAYSTFGWYDYWGQGTQVTVSS | low polyreactivity |
| QVQLEESGGGLVQAGGSLRLSCAASGLISVWYVMGWYRQAPGKERELVAAIRYGGGRTYYADSVKGRFTISRDNAKNTVYLQMNSLKPEDTAVYYCNARPYRGTYGYWGQGTQVTVSS | high polyreactivity |
| QVQLEESGGGLVQAGGSLRLSCAASGLTFAQNAMGWYRQAPGKEREMVAAITSSGGRTYYADSVKGRFTISRDNANNTVYLQMNSLKPEDTAVYDCNVRYYRYGYTYGYWGQGTQVTVSS | high polyreactivity |
| QVQLEESGGGLVQAGGSLRLSCAASGNIFFVYDMGWYRQAPGKERELVAAISWSGGSTYADSVKGRFTISRDNAKNTVYLQMNSLKPEDTAVYYCAAARYAYKHAFEYWGQGTQVTVSS | low polyreactivity |
| QVQLEESGGGLVQAGGSLRLSCAASGNIFSLNGMGRYRQAPGKEREFVAAITWSVGSTYYADSVKGRFSISRDNAKKTVYLQMNSLKPEDTAVYYCAATVSDLYKNEYYYWGQGTQVTVSS | low polyreactivity |
| QVQLEESGGGLVQAGGSLRLSCAASGNIFVSYAMGWYRQAPGKERELVAAISKSGGSTYYADSVKGRFTISRDNAKNTVYLQMNSLKPEDTAVYYCAARWYNRVKYQKYNYWGQGTQVTVSS | high polyreactivity |
| QVQLEESGGGLVQAGGSLRLSCAASGNTLGPYAMGWYRQATGKERELVAAITWSGGITDYADYVKGRFTISRDNAKNTVYLQMNSLKPEDTAVYYCNSGPSLGIFQGTSVGLRYDYWGQGTQVTLSS | low polyreactivity |
| QVQLEESGGGLVQAGGSLRLSCAASGRIFGYYPMGWYRQATGKERELVAGISRSGGSTYYADSVKGRFTISRDNAKNTVFLQMISLKPEDTAVYYCAKRVSYYGRYRPYDYWGQGTQVTVSS | high polyreactivity |

— the nanobody polyreactivity screen of Harvey et al. (2022)
